Test results published in US20240317877A1 (IUCF HYU INDUSTRY UNIVERSITY COOPERATION FOUNDATION HANYANG …, published 2024).
Numbering of substitutions follows the chain as printed. Names and notes keep the numbering of the source. Blank lines part the entries; values can stand above or below the binder they belong to.

Key:
[1] = target: T1, human transferrin receptor (human, UniProt P02786 89-760, limits assumed); test: ELISA, plate-coated human TfR, anti-human IgG-HRP detection; WT run beside VH Y99H
T1 construct: also called hTfR; human TfR
Method: (§1) Human TfR (2.5 μg/ml) was coated on a 96-well half area plate (Corning) overnight at 4° C. Antibodies were prepared by diluting 5-fold from 50 nM to 0.64 pM. PBS (pH 7.5; same as blocking buffer) containing 5% skim milk was used for dilution. The plate was washed three times with PBS at pH 7.5, and then blocked with blocking buffer at room temperature for 2 hours and washed several more times. Various concentrations of anti-TfR antibodies were placed in the wells, and binding was induced for 2 hours. Unbound antibodies were then washed twice with PBST and twice with PBS.
(§2) Horseradish peroxidase (HRP)-conjugated anti-human IgG antibody (AB frontier) was added and incubated for 2 hours. After the antibody washing step, 50 μl of TMB solution was added and incubated at 37° C. for 20 minutes. Finally, an equal volume of stop solution was added and mixed, and then the absorbance was measured at 450 nm using an EMax Microplate Reader (Molecular Devices). Steps other than TMB incubation were performed at room temperature.

[2] = target: T1, human transferrin receptor; test: ELISA, plate-coated human TfR, anti-human IgG-HRP detection; WT run beside VL Y94A
Method: as §1, §2

[3] = target: T1, human transferrin receptor; test: ELISA, plate-coated human TfR, anti-human IgG-HRP detection; WT run beside VH Y27H
Method: as §1, §2

[4] = target: T1, human transferrin receptor; test: ELISA, plate-coated human TfR, anti-human IgG-HRP detection; WT run beside VH Y98A
Method: as §1, §2

[5] = target: T1, human transferrin receptor; test: ELISA, plate-coated human TfR, anti-human IgG-HRP detection
Method: as §1, §2

[6] = target: T1, human transferrin receptor; test: ELISA, plate-coated human TfR; mutant against WT
Method: as §1, §2

T1 sequence (P02786 89-760 limits assumed): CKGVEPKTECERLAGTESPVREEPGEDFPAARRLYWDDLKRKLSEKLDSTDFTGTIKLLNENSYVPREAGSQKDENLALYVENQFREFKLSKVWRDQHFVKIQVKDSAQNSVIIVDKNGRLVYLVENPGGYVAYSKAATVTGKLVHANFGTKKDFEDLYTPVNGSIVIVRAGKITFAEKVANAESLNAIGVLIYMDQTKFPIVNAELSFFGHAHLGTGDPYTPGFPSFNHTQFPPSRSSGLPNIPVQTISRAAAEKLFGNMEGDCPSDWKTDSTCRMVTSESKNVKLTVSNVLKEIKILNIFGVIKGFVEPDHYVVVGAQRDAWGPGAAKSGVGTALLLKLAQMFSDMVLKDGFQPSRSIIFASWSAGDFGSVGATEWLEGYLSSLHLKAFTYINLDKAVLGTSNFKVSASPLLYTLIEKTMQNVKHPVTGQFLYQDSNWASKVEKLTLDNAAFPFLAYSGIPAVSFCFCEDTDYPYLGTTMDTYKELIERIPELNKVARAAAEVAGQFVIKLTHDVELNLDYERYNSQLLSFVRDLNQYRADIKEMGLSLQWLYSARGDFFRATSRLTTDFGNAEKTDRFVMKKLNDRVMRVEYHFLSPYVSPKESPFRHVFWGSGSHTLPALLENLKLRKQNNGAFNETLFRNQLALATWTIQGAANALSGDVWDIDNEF

EC50 [1]: 48 pM | EC50 [2]: 440 pM | EC50 [3]: 57 pM | EC50 [4]: 530 pM
B1: anti-human transferrin receptor antibody 128.1, wild type (WT) (antibody, V domains shown)
VH: EVQLQQSGPELVKPGASMKISCKASGYSFTGYTMNWVKQSHGENLEWIGRINPHNGGTDYNQKFKDKAPLTVDKSSNTAYMELLSLTSEDSAVYYCARGYYYYSLDYWGQGTSVTVSS
VL: QIVLTQSPAIMSASPGEKVTMTCSASSSIDYIHWYQQKSGTSPKRWIYDTSKLASGVPARFSGSGSGTSYSLTISSMEPEDAATYYCHQRNSYPWTFGGGTRLEIR
notes: The ELISA detects with anti-human IgG-HRP; also called anti-hTfR antibody; anti-TfR(WT)

EC50 [5]: 1980 pM | Fold-increase of EC50 (Reduced rate of binding affinity) [6]: 35 fold
B2: anti-human transferrin receptor antibody 128.1 with VH Y27H mutation (antibody, V domains shown)
VH: B1 VH with Y27H
VL: B1 VL
notes: Same vector format as WT (human IgG constant region with myc-His tag, human kappa CL); also called anti-TfR(VH Y27H)

Fold-increase of EC50 (Reduced rate of binding affinity) [6]: > 100 fold
B3: anti-human transferrin receptor antibody 128.1 with VH Y98A mutation (antibody, V domains shown)
VH: B1 VH with Y102A
VL: B1 VL

EC50 [5]: 520 pM | Fold-increase of EC50 (Reduced rate of binding affinity) [6]: 1.2 fold
B4: anti-human transferrin receptor antibody 128.1 with VL Y94A mutation (antibody, V domains shown)
VH: B1 VH
VL: B1 VL with Y93A

EC50 [5]: 440 pM | Fold-increase of EC50 (Reduced rate of binding affinity) [6]: 9.2 fold
B5: anti-human transferrin receptor antibody 128.1 with VH Y99H mutation (antibody, V domains shown)
VH: B1 VH with Y103H
VL: B1 VL
